The values below are quoted from earlier work in article PMC3103538.

For orientation: pKa means the pH at which an ionisable group is half protonated.

Among the targets are Asp7 (UniProt position 255, MKQLEDKVEEL); Cterm32 (UniProt position 280, KKLVGER----); Glu10 (UniProt position 258, LEDKVEELLSK); Glu11 (UniProt position 259, EDKVEELLSKN); Glu20 (UniProt position 268, KNYHLENEVAR); Glu22 (UniProt position 270, YHLENEVARLK); Glu32 (UniProt position 280, KKLVGER----); Glu6 (UniProt position 254, SMKQLEDKVEE); His18 (UniProt position 266, LSKNYHLENEV); Lys15 (UniProt position 263, EELLSKNYHLE); Lys27 (UniProt position 275, EVARLKKLVGE); Lys28 (UniProt position 276, VARLKKLVGER); Lys3 (UniProt position 251, KLQSMKQLEDK); Lys8 (UniProt position 256, KQLEDKVEELL); Nterm0 (UniProt position 248, RARKLQRMKQL); Tyr17 (UniProt position 265, LLSKNYHLENE).

“GCN4 leucine zipper (33-residue fragment, GCN4p1-type) (Saccharomyces cerevisiae; R1S; insertion of Gly0 before residue 1 (Arg1 substituted by the dipeptide Gly0-Ser1))”: the pKa is 3.48 in the data set with Asp7; 4.03 with Cterm32; 3.94 in the data set with Glu10; 4.05 with Glu11; 4.38 in the data set with Glu20; 4.2 in the data set with Glu22. Further, the pKa in the data set with Glu32 is listed as 4.62; with Glu6 it was 4.6; with His18, 6.24; with Lys15 it was 10.62; in the data set with Lys27 it was 11.1; with Lys28, 10.64. Also, the pKa is 10.78 with Lys3, 11.26 with Lys8, 7.88 with Nterm0 and 9.82 with Tyr17.
